Data on 32 molecules can be found in PMC10786891, “Massively parallel profiling of RNA-targeting CRISPR-Cas13d”.

Sequences and labels used below:
T1: EsCas13d, nuclease-dead (Eubacterium siraeum, UniProt B0MS50, R295A;H300A;R849A;H854A)
T1 sequence: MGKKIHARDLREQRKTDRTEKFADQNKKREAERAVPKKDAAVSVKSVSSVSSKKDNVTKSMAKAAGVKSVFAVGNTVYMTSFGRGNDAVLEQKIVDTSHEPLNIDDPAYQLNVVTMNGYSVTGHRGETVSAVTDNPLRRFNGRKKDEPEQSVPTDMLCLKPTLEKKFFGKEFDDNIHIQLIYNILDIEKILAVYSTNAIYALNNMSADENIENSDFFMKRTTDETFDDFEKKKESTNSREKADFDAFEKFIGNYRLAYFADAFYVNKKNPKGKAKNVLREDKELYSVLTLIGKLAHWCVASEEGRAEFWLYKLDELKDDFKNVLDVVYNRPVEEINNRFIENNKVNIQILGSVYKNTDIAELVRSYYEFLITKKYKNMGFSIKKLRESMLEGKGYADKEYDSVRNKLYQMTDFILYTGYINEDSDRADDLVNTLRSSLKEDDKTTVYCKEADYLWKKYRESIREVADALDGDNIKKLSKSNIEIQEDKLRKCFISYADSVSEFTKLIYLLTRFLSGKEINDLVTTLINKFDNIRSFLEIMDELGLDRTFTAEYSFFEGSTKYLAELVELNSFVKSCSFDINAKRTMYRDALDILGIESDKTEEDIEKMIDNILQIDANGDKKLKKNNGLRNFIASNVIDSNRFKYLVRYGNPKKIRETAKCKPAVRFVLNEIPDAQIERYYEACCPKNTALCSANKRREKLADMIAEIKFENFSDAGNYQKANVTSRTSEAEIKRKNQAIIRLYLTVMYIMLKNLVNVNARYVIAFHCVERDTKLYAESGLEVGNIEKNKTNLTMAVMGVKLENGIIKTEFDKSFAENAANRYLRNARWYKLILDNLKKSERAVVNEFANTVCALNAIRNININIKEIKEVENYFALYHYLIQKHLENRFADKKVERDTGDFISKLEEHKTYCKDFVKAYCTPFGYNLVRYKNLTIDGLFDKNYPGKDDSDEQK

B1: target 1 del1,del2 (mixed)
RNA 1: CACCCGUGCAAAAAUGCAGGGGUCUAAAACUGAGCGGAUAACCUCUCUAUGG
RNA 2: GGGAAUGGAUCCACAUCUACGAAUUCGUACCAUAGAGAGGUUAUCCGCUCCGAGAUCGGAAGAGCACACGU
B2: target 1 C7A,G12U (mixed)
RNA 1: B1 RNA 1
RNA 2: GGGAAUGGAUCCACAUCUACGAAUUCGUACCAUAGAGAGUUUAUACGCUCACCGAGAUCGGAAGAGCACACGU
B3: target 1 insA 3' of 19,insG 3' of 10 (mixed)
RNA 1: B1 RNA 1
RNA 2: GGGAAUGGAUCCACAUCUACGAAUUCGUACCAUAAGAGAGGUUGAUCCGCUCACCGAGAUCGGAAGAGCACACGU
B4: target 1 A18U,A20G (mixed)
RNA 1: B1 RNA 1
RNA 2: B2 RNA 2 with A32G, A34U, U40G, A45C
B5: target 1 U3A,U19C (mixed)
RNA 1: B1 RNA 1
RNA 2: B2 RNA 2 with U33C, U40G, A45C, U49A
B6: target 1 insC 3' of 15,insA 3' of 3 (mixed)
RNA 1: B1 RNA 1
RNA 2: GGGAAUGGAUCCACAUCUACGAAUUCGUACCAUAGAGCAGGUUAUCCGCUACACCGAGAUCGGAAGAGCACACGU
B7: target 1 insC 3' of 15,insU 3' of 4 (mixed)
RNA 1: B1 RNA 1
RNA 2: B6 RNA 2 with A51U
B8: target 1 C2U,A16U (mixed)
RNA 1: B1 RNA 1
RNA 2: B2 RNA 2 with A36U, U40G, A45C, C50U
B9: target 1 C4G,C6A (mixed)
RNA 1: B1 RNA 1
RNA 2: B2 RNA 2 with U40G, A45C, C46A, C48G
B10: target 1 del11,del16 (mixed)
RNA 1: B1 RNA 1
RNA 2: GGGAAUGGAUCCACAUCUACGAAUUCGUACCAUAGGAGGUAUCCGCUCACCGAGAUCGGAAGAGCACACGU
B11: target 1 G13U,A16G (mixed)
RNA 1: B1 RNA 1
RNA 2: B2 RNA 2 with A36G, G39U, U40G, A45C
B12: target 1 U8G,G13U (mixed)
RNA 1: B1 RNA 1
RNA 2: B2 RNA 2 with G39U, U40G, U44G, A45C
B13: target 1 insG 3' of 9,insA 3' of 7 (mixed)
RNA 1: B1 RNA 1
RNA 2: GGGAAUGGAUCCACAUCUACGAAUUCGUACCAUAGAGAGGUUAGUCACGCUCACCGAGAUCGGAAGAGCACACGU
B14: target 1 insU 3' of 17,insC 3' of 1 (mixed)
RNA 1: B1 RNA 1
RNA 2: B6 RNA 2 with A36U, G37A, C38G, A51C, C52A, A53C
B15: target 1 insU 3' of 17,insA 3' of 2 (mixed)
RNA 1: B1 RNA 1
RNA 2: B6 RNA 2 with A36U, G37A, C38G, A51C, C52A
B16: target 1 insC 3' of 15,insU 3' of 2 (mixed)
RNA 1: B1 RNA 1
RNA 2: B6 RNA 2 with A51C, C52U
B17: target 1 G17A,C21U (mixed)
RNA 1: B1 RNA 1
RNA 2: B2 RNA 2 with C31U, G35A, U40G, A45C
B18: target 1 insU 3' of 22,insU 3' of 6 (mixed)
RNA 1: B1 RNA 1
RNA 2: B3 RNA 2 with C31U, A32C, U33A, A34U, G44A, A45U, U46C, C48U
B19: target 1 insA 3' of 15,insC 3' of 13 (mixed)
RNA 1: B1 RNA 1
RNA 2: B3 RNA 2 with A35G, G36A, A37G, G38A, G41C, U42G, G44U
B20: target 1 insA 3' of 21,insU 3' of 18 (mixed)
RNA 1: B1 RNA 1
RNA 2: B3 RNA 2 with U33A, A34U, G36U, A37G, G38A, A39G, G40A, U42G, G44U
B21: target 1 insC 3' of 11,insU 3' of 6 (mixed)
RNA 1: B1 RNA 1
RNA 2: B13 RNA 2 with U42C, A43U, G44A, A47C, C48U
B22: target 1 U8G,C22G (mixed)
RNA 1: B1 RNA 1
RNA 2: B2 RNA 2 with C30G, U40G, U44G, A45C
B23: target 1 insG 3' of 11,insU 3' of 1 (mixed)
RNA 1: B1 RNA 1
RNA 2: B6 RNA 2 with C38A, A39G, G41U, U42G, A51C, C52A, A53U
B24: target 1 insC 3' of 19,insG 3' of 19 (mixed)
RNA 1: B1 RNA 1
RNA 2: B3 RNA 2 with A34C, A35G, G36A, A37G, G38A, A39G, G40A, U42G, G44U
B25: target 1 insA 3' of 21,insU 3' of 5 (mixed)
RNA 1: B1 RNA 1
RNA 2: B3 RNA 2 with U33A, A34U, G44A, A45U, U46C, C48G, G49U
B26: target 1 C7U,A16U (mixed)
RNA 1: B1 RNA 1
RNA 2: B2 RNA 2 with A36U, U40G, A45U
B27: target 1 insG 3' of 7,insG 3' of 1 (mixed)
RNA 1: B1 RNA 1
RNA 2: GGGAAUGGAUCCACAUCUACGAAUUCGUACCAUAGAGAGGUUAUCGCGCUCAGCCGAGAUCGGAAGAGCACACGU
B28: target 1 insA 3' of 17,insA 3' of 17 (mixed)
RNA 1: B1 RNA 1
RNA 2: B3 RNA 2 with A35G, G36A, G38A, A39G, G40A, U42G, G44U
B29: target 1 insA 3' of 19,insU 3' of 15 (mixed)
RNA 1: B1 RNA 1
RNA 2: B3 RNA 2 with A39U, G40A, U42G, G44U
B30: target 1 del4,del9 (mixed)
RNA 1: B1 RNA 1
RNA 2: B1 RNA 2 with A43U, U44C, C46G, G47U, U49A
B31: target 1 insA 3' of 21,insC 3' of 12 (mixed)
RNA 1: B1 RNA 1
RNA 2: B3 RNA 2 with U33A, A34U, U42C, G44U
B32: target 1 insC 3' of 22,insC 3' of 22 (mixed)
RNA 1: B1 RNA 1
RNA 2: GGGAAUGGAUCCACAUCUACGAAUUCGUACCCCAUAGAGAGGUUAUCCGCUCACCGAGAUCGGAAGAGCACACGU

Substitutions are numbered along the chain they refer to. Numbers in names are those of the source.

This series concerns the target T1, EsCas13d, nuclease-dead. Description: crRNA (strand 1, pre-loaded); Mg2+; 40 mM Tris-HCl pH 7.5, 150 mM NaCl, 6 mM MgCl2, 1 mM DTT, 0.1% Tween-20, 0.2 mg/ml BSA; 25 C; 10 min per concentration, then washed. The conditions noted are these: tags: His6-TwinStrep-SUMO cleaved; N-terminal SNAP kept (SNAP-Surface 488); label: 3' end held by stalled T7 RNA polymerase.
Take B1: the Kd worked out at 15.6 ± 0.9 nM.

For B2, the Kd turned out to be 15.3 ± 1.5 nM.

In turn, B3 gave a Kd of 68 ± 28 nM.

Regarding B4, the Kd worked out at 93 ± 30 nM.

B5 registered a Kd of 24.2 ± 2.6 nM.

B6 yielded a Kd of 13 ± 0.8 nM. This Kd lies about 1.9-fold lower than the previous one.

Regarding B7, binding was characterised by a dissociation constant (Kd) of 14.3 ± 0.6 nM.

Molecule B8 had a Kd of 56 ± 11 nM. Against the preceding molecule, the Kd is about 3.9-fold higher.

B9 gave a Kd of 6.7 ± 0.4 nM. This Kd is about 8.4-fold lower than that of the molecule before.

Regarding B10, the affinity, expressed as Kd, was 68 ± 11 nM.

In turn, B11 showed a Kd of 100 ± 50 nM.

In turn, B12 displayed a Kd of 38 ± 8 nM. This Kd lies about 2.6-fold lower than the previous one.

In the case of B13, the Kd stood at 12.2 ± 0.6 nM.

The molecule B14 registered a Kd of 18 ± 2.4 nM. The Kd values of the last two molecules are within 1.5-fold of each other.

In turn, B15 registered a Kd of 17.6 ± 1.8 nM.

The molecule B16 displayed a Kd of 20.5 ± 1.8 nM.

For B17, the Kd was found to be 8.1 ± 0.5 nM.

B18 came in with a Kd of 38 ± 7 nM. Compared with the last molecule, the Kd is about 4.7-fold higher.

In turn, B19 had a Kd of 16.4 ± 2.3 nM.

The molecule B20 showed a Kd of 46 ± 7 nM.

As to B21, the Kd amounted to 69 ± 8 nM.

B22 gave a Kd of 43 ± 11 nM.

Take B23: the Kd was 56 ± 10 nM.

On to B24, for which the Kd was 73 ± 6 nM.

As to B25, the affinity, expressed as Kd, was 30 ± 5 nM.

Take B26: the Kd was 46 ± 7 nM.

As for B27, the dissociation constant Kd stood at 6.65 ± 0.35 nM.

In turn, B28 returned a Kd of 10.8 ± 0.6 nM.

In turn, B29 returned a Kd of 23.2 ± 2.6 nM.

B30 had a Kd of 78 ± 15 nM.

Regarding B31, the Kd is ~44 nM.

The molecule B32 registered a Kd of 17.4 ± 0.7 nM.
